Target: T1, Staphylococcus haemolyticus AcrIIA13b, wild type, with C-terminal 6xHis tag (Staphylococcus haemolyticus)
T1 construct: Monomer and dimer peaks coexist in SEC; also called shAcrIIA13b; wild-type AcrIIA13b; source: E. coli BL21 (DE3), purified (Ni-NTA, SEC)
Test: ITC; PBS pH 7.4, 20 °C; AcrIIA13b (500 μM) injected into the target protein (50 μM) in the cell, 25 injections; single-site model
Settings: both partners purified

| Binder | Kd [µM] |
| --- | --- |
| SauCas9 WED (wedge-like) domain, His-tagged (domain or fragment) LYSTRKDDKGNTLIVNNLNGLYDKDNDKLKKLINKSPEKLLMYHHDPQTYQKLKLIMEQYGDEKNPLYKYYEETGNYLTKYSKKDNGPVIKKIKYYGNKLNAHLDITDDYPNSRNKVVKLSL | 3.21 |
| SauCas9 WED-PI domain construct, His-tagged (domain or fragment) LYSTRKDDKGNTLIVNNLNGLYDKDNDKLKKLINKSPEKLLMYHHDPQTYQKLKLIMEQYGDEKNPLYKYYEETGNYLTKYSKKDNGPVIKKIKYYGNKLNAHLDITDDYPNSRNKVVKLSLKPYRFDVYLDNGVYKFVTVKNLDVIKKENYYEVNSKCYEEAKKLKKISNQAEFIASFYNNDLIKINGELYRVIGVNNDLLNRIEVNMIDITYREYLENMNDKRPPRIIKTIASKTQSIKKYSTDILGNLYEVKSKKHPQIIKKG | 0.12 |
